From the supplement of paper PMC11780869 come the findings set out here.

For the data set, the system named is Bacillus subtilis. Put plainly: cleaved RNA product abundance (RNA/gDNA barcode ratio) relative to median wild-type variant (ratio to wild type); higher = more accumulation of the downstream cleavage product. To be noted: experiment (reporter, strain, medium): exp 8a: truncated aprE reporter, strain BJT201 with 2% xylose (RNase J1 expressed); cleavage site: glnRA (positions -5 to +31 mutated). The essentials: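 Reporter mRNAs (truncated aprE or tetM) carrying barcoded, mutagenized RNase Y cleavage-site windows were made from oligos with a 9% error rate and integrated into the B. subtilis chromosome. Cultures grew in LB at 37°C from OD600 0.0003 to 0.3. Cleaved RNA was gel-selected, reverse transcribed and barcode-sequenced alongside genomic DNA barcodes, with UMI collapsing. Cleaved product abundance is the RNA:gDNA barcode ratio per variant, scaled to the median wild-type variant.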
In the case of “CGACATGTCCCGCTTCTTTCATTAATCCGTTAGCAACTCTTTTGCTATATACATTTACCTTTTAAGAGGAGGAAT”, the “cleaved RNA product abundance” value was 1.15.

As to “CGACATGTCCCGCTTCTTTCATTAATCCGTTAGCAACTCTTTTTCTATATACATTTACCTTTTAAGAGGAGGAAT”, the “cleaved RNA product abundance” value worked out at 0.642.

With “CGACATGTCCCGCTTCTTTCATTAATCCGTTAGCAACTGAGTTGCTATATACATTTACCTTTTAAGAGGAGGAAT”, the “cleaved RNA product abundance” value was found to be 0.261.

In the case of “CGACATGTCCCGCTTCTTTCATTAATCCGTTAGCAACTGATTTACTATATACATTTACCTTTTAAGAGGAGGAAT”, the “cleaved RNA product abundance” value turned out to be 0.502.

For “CGACATGTCCCGCTTCTTTCATTAATCCGTTAGCAACTGATTTGATATATACATTTACCTTTTAAGAGGAGGAAT”, the “cleaved RNA product abundance” value stood at 0.463.

“CGACATGTCCCGCTTCTTTCATTAATCCGTTAGCAACTGATTTGCAATATACATTTACCTTTTAAGAGGAGGAAT”: the “cleaved RNA product abundance” value was determined as 0.49.

For “CGACATGTCCCGCTTCTTTCATTAATCCGTTAGCAACTGATTTGCCATATACATTTACCTTTTAAGAGGAGGAAT”, the “cleaved RNA product abundance” value is 0.226.

For “CGACATGTCCCGCTTCTTTCATTAATCCGTTAGCAACTGATTTGCTAAATACATTTACCTTTTAAGAGGAGGAAT”, the “cleaved RNA product abundance” value stood at 0.217.

Consider “CGACATGTCCCGCTTCTTTCATTAATCCGTTAGCAACTGATTTGCTATAAACATTTACCTTTTAAGAGGAGGAAT”, for which the “cleaved RNA product abundance” value was determined as 0.686.

On to “CGACATGTCCCGCTTCTTTCATTAATCCGTTAGCAACTGATTTGCTATATACATATACCTTTTAAGAGGAGGAAT”, for which the “cleaved RNA product abundance” value came to 1.

On to “CGACATGTCCCGCTTCTTTCATTAATCCGTTAGCAACTGATTTGCTATATACATTAACCTTTTAAGAGGAGGAAT”, for which the “cleaved RNA product abundance” value stood at 1.33.

As for “CGACATGTCCCGCTTCTTTCATTAATCCGTTAGCAACTGATTTGCTATATACATTTACCCTTTAAGAGGAGGAAT”, the “cleaved RNA product abundance” value came to 0.843.

For “CGACATGTCCCGCTTCTTTCATTAATCCGTTAGCAACTGATTTGCTATATACATTTACCTTTTAAGAGGAGGAAT”, the “cleaved RNA product abundance” value amounted to 0.96.

Turning to “CGACATGTCCCGCTTCTTTCATTAATCCGTTAGCAACTGATTTGCTATATACATTTACTTTTTAAGAGGAGGAAT”, the “cleaved RNA product abundance” value was 1.06.

For the sequence “CGACATGTCCCGCTTCTTTCATTAATCCGTTAGCAACTGATTTGCTATATACATTTATCTTTTAAGAGGAGGAAT”, the “cleaved RNA product abundance” value is 1.36.

Regarding “CGACATGTCCCGCTTCTTTCATTAATCCGTTAGCAACTGATTTGCTATATACATTTTCCTTTTAAGAGGAGGAAT”, the “cleaved RNA product abundance” value is 0.328.

In the case of “CGACATGTCCCGCTTCTTTCATTAATCCGTTAGCAACTGATTTGCTATATAGATTTACCTTTTAAGAGGAGGAAT”, the “cleaved RNA product abundance” value was 0.979.

As for “CGACATGTCCCGCTTCTTTCATTAATCCGTTAGCAACTGATTTGCTTTATACATTTACCTTTTAAGAGGAGGAAT”, the “cleaved RNA product abundance” value stood at 0.282.

For the sequence “CGACATGTCCCGCTTCTTTCATTAATCCGTTAGCAACTGATTTTCTATATACATTTACCTTTTAAGAGGAGGAAT”, the “cleaved RNA product abundance” value is 0.689.

With “CGACATGTCCCGCTTCTTTCATTAATCCGTTAGCAACTGCTTTGCTATATACATTAACCTTTTAAGAGGAGGAAT”, the “cleaved RNA product abundance” value was 0.575.

For “CGACATGTCCCGCTTCTTTCATTAATCCGTTAGCAACTGCTTTGCTATATACATTTACCTTTTAAGAGGAGGAAT”, the “cleaved RNA product abundance” value is 0.307.

“CGACATGTCCCGCTTCTTTCATTAATCCGTTAGCAACTGCTTTGCTGTATACATTTACCTTTTAAGAGGAGGAAT”: the “cleaved RNA product abundance” value came out at 0.106.

On to “CGACATGTCCCGCTTCTTTCATTAATCCGTTAGCAACTGGTTTGATATATACATTTACCTTTTAAGAGGAGGAAT”, for which the “cleaved RNA product abundance” value was found to be 0.485.

On to “CGACATGTCCCGCTTCTTTCATTAATCCGTTAGCAACTGGTTTGCTATATACATTTACCTTTTAAGAGGAGGAAT”, for which the “cleaved RNA product abundance” value stood at 0.811.

On to “CGACATGTCCCGCTTCTTTCATTAATCCGTTAGCAACTGGTTTGCTATATACATTTACTTTTTAAGAGGAGGAAT”, for which the “cleaved RNA product abundance” value was 0.918.

With “CGACATGTCCCGCTTCTTTCATTAATCCGTTAGCAACTGGTTTGCTGTATACATTTACCTTTTAAGAGGAGGAAT”, the “cleaved RNA product abundance” value was determined as 0.0825.

For the sequence “CGACATGTCCCGCTTCTTTCATTAATCCGTTAGCAACTGTAATGCTATATACATTTACCTTTTAAGAGGAGGAAT”, the “cleaved RNA product abundance” value amounted to 1.06.

As to “CGACATGTCCCGCTTCTTTCATTAATCCGTTAGCAACTGTACTGCTATATACATTTACCTTTTAAGAGGAGGAAT”, the “cleaved RNA product abundance” value was determined as 0.328.

With “CGACATGTCCCGCTTCTTTCATTAATCCGTTAGCAACTGTATTACTATATACATTTACCTTTTAAGAGGAGGAAT”, the “cleaved RNA product abundance” value turned out to be 0.835.

On to “CGACATGTCCCGCTTCTTTCATTAATCCGTTAGCAACTGTATTCCTATATACATTTACCTTTTAAGAGGAGGAAT”, for which the “cleaved RNA product abundance” value came to 0.45.

In the case of “CGACATGTCCCGCTTCTTTCATTAATCCGTTAGCAACTGTATTGATATATACATTTACCTTTTAAGAGGAGGAAT”, the “cleaved RNA product abundance” value was found to be 0.658.

On to “CGACATGTCCCGCTTCTTTCATTAATCCGTTAGCAACTGTATTGCAATATACATTTACCTTTTAAGAGGAGGAAT”, for which the “cleaved RNA product abundance” value came to 0.678.

Turning to “CGACATGTCCCGCTTCTTTCATTAATCCGTTAGCAACTGTATTGCTAAATACATTTACCTTTTAAGAGGAGGAAT”, the “cleaved RNA product abundance” value was determined as 0.438.

With “CGACATGTCCCGCTTCTTTCATTAATCCGTTAGCAACTGTATTGCTATATAAATTTACCTTTTAAGAGGAGGAAT”, the “cleaved RNA product abundance” value was 0.849.

For “CGACATGTCCCGCTTCTTTCATTAATCCGTTAGCAACTGTATTGCTATATACATATACCTTTTAAGAGGAGGAAT”, the “cleaved RNA product abundance” value was determined as 0.755.

With “CGACATGTCCCGCTTCTTTCATTAATCCGTTAGCAACTGTATTGCTATATACATGTACCTTTTAAGAGGAGGAAT”, the “cleaved RNA product abundance” value is 0.783.

For “CGACATGTCCCGCTTCTTTCATTAATCCGTTAGCAACTGTATTGCTATATACATTTAACTTTTAAGAGGAGGAAT”, the “cleaved RNA product abundance” value was 1.13.

For “CGACATGTCCCGCTTCTTTCATTAATCCGTTAGCAACTGTATTGCTATATACATTTACATTTTAAGAGGAGGAAT”, the “cleaved RNA product abundance” value amounted to 1.47.

For the sequence “CGACATGTCCCGCTTCTTTCATTAATCCGTTAGCAACTGTATTGCTATATACATTTACCCTTTAAGAGGAGGAAT”, the “cleaved RNA product abundance” value was 1.1.

As to “CGACATGTCCCGCTTCTTTCATTAATCCGTTAGCAACTGTATTGCTATATACATTTACCTTTTAAGAGGAGGAAT”, the “cleaved RNA product abundance” value amounted to 0.943.

For the sequence “CGACATGTCCCGCTTCTTTCATTAATCCGTTAGCAACTGTATTGCTATATACATTTACGTTTTAAGAGGAGGAAT”, the “cleaved RNA product abundance” value worked out at 1.16.

In the case of “CGACATGTCCCGCTTCTTTCATTAATCCGTTAGCAACTGTATTGCTATATACATTTATCTTTTAAGAGGAGGAAT”, the “cleaved RNA product abundance” value was 1.07.

Turning to “CGACATGTCCCGCTTCTTTCATTAATCCGTTAGCAACTGTATTGCTATATTCATTTACCTTTTAAGAGGAGGAAT”, the “cleaved RNA product abundance” value came out at 0.16.

As for “CGACATGTCCCGCTTCTTTCATTAATCCGTTAGCAACTGTATTGCTATTTACATTTACCTTTTAAGAGGAGGAAT”, the “cleaved RNA product abundance” value was found to be 0.202.

Regarding “CGACATGTCCCGCTTCTTTCATTAATCCGTTAGCAACTGTATTGGTATATACATTTACCTTTTAAGAGGAGGAAT”, the “cleaved RNA product abundance” value was 0.175.

As for “CGACATGTCCCGCTTCTTTCATTAATCCGTTAGCAACTGTATTTCTATATACATTTACCTTTTAAGAGGAGGAAT”, the “cleaved RNA product abundance” value is 0.506.

In the case of “CGACATGTCCCGCTTCTTTCATTAATCCGTTAGCAACTGTCTTACTATATACATTTACCTTTTAAGAGGAGGAAT”, the “cleaved RNA product abundance” value was determined as 0.324.

Regarding “CGACATGTCCCGCTTCTTTCATTAATCCGTTAGCAACTGTCTTGATATATACATTTACCTTTTAAGAGGAGGAAT”, the “cleaved RNA product abundance” value is 0.547.

On to “CGACATGTCCCGCTTCTTTCATTAATCCGTTAGCAACTGTCTTGCTATATACATTTACCTTTTAAGAGGAGGAAT”, for which the “cleaved RNA product abundance” value worked out at 0.849.

For the sequence “CGACATGTCCCGCTTCTTTCATTAATCCGTTAGCAACTGTCTTGCTATCTACATTTACCTTTTAAGAGGAGGAAT”, the “cleaved RNA product abundance” value came to 0.0931.

On to “CGACATGTCCCGCTTCTTTCATTAATCCGTTAGCAACTGTGTAGCTATATACATTTACCTTTTAAGAGGAGGAAT”, for which the “cleaved RNA product abundance” value came out at 0.23.

For the sequence “CGACATGTCCCGCTTCTTTCATTAATCCGTTAGCAACTGTGTTACTATATACATTTACCTTTTAAGAGGAGGAAT”, the “cleaved RNA product abundance” value stood at 0.274.

Consider “CGACATGTCCCGCTTCTTTCATTAATCCGTTAGCAACTGTGTTGCTATATACATTTACATTTTAAGAGGAGGAAT”, for which the “cleaved RNA product abundance” value came to 0.517.

On to “CGACATGTCCCGCTTCTTTCATTAATCCGTTAGCAACTGTGTTGCTATATACATTTACCATTTAAGAGGAGGAAT”, for which the “cleaved RNA product abundance” value stood at 0.38.

As for “CGACATGTCCCGCTTCTTTCATTAATCCGTTAGCAACTGTGTTGCTATATACATTTACCGTTTAAGAGGAGGAAT”, the “cleaved RNA product abundance” value was 0.537.

Take “CGACATGTCCCGCTTCTTTCATTAATCCGTTAGCAACTGTGTTGCTATATACATTTACCTTTTAAGAGGAGGAAT”: the “cleaved RNA product abundance” value amounted to 0.358.

Take “CGACATGTCCCGCTTCTTTCATTAATCCGTTAGCAACTGTGTTGTTATATACATTTACCTTTTAAGAGGAGGAAT”: the “cleaved RNA product abundance” value amounted to 1.01.

“CGACATGTCCCGCTTCTTTCATTAATCCGTTAGCAACTGTGTTTCTATATACATTTAACTTTTAAGAGGAGGAAT”: the “cleaved RNA product abundance” value was found to be 0.453.

“CGACATGTCCCGCTTCTTTCATTAATCCGTTAGCAACTGTTAAGCTATATACATTTACCTTTTAAGAGGAGGAAT”: the “cleaved RNA product abundance” value worked out at 0.279.

Take “CGACATGTCCCGCTTCTTTCATTAATCCGTTAGCAACTGTTACGCTATATACATTTACCTTTTAAGAGGAGGAAT”: the “cleaved RNA product abundance” value stood at 0.54.

Turning to “CGACATGTCCCGCTTCTTTCATTAATCCGTTAGCAACTGTTATCCTATATACATTTACCTTTTAAGAGGAGGAAT”, the “cleaved RNA product abundance” value turned out to be 0.337.
